Experimental data as given in PMC3410417 (The Journal of Cell Biology, 2012).

Target: Myc-mGlu5a-Rluc8 (UniProt P31424-2 21-1171)
Test: FRET or BRET

B1: YFP-Homer3 (natural protein, UniProt Q9Z2X5 1-358, looked up)
chain: MSTAREQPIFSTRAHVFQIDPATKRNWIPAGKHALTVSYFYDATRNVYRIISIGGAKAIINSTVTPNMTFTKTSQKFGQWADSRANTVYGLGFGSEQQLTQFAEKFQEVKEAARLAREKSQDGGELTSTALAMASHQVPPSPLVSTNGPEEKLFRSQSADAPGPTERERLKKMLSEGSVGEVQWEAEFFALQDSNQRLAGALREANAAATQWRQQLEVQRAEAEHLRQRVAELEAQVAAEPVRAGEKEATSQSVEQLEARVQTKDQEIQTLKNQSTGPREAPDTAEREETQQQVQDLETRNAELEQQLRAMESNLEEARAERERARAEVGRAAQLLDVRLFELSELREGLARLAEAAP
B1 was tested, and the “BRET ratio in the spine before TAT-Homer1a (% of mean BRET in the shaft)” value was 364%.
